Data: article PMC2892170 (Biochemistry, 2009)

Biological target: the molecule itself
Experiment: SEC

B1: Enterococcus faecalis phosphopantothenoylcysteine synthetase (enzyme, UniProt A0ACD6TE34 1-257, looked up)
chain: MDVLVTAGGTSEPIDNVRSITNHSSGGLGKAIAESFLAAGHTVTYVTTKHALRPTQQLDLSIKEIETTVELATTLEQLFAEKQFDAIVHAMAVSDFTTEAAQTEEQFIDSFTQQLSEQTLPKTKEALATIVQNTLNQIADIPQTATKISSDTDRLLIFLKKNPKVIQMIRDKQPQTVLVGFKLLVDVSQEELVQVAQAALVKNRCDFVLANDLMNVHETEHEGLLINETGIVQEACSKQGIGSMIVKNVEKKWREQQ
stoichiometry N: 2
